B1: HDV Ribozyme (parent)
chain: GGCCGGCAUGGUCCCAGCCUCCUCGCUGGCGCCGGCUGGGCAACAUUCCGAGGGGACCGUCCCCUCGGUAAUGGCGAAUGGGACCCA

The variants in this series derive from B1. Put plainly: self-cleavage, relative activity (ratio to wild type); higher = more cleavage; co-transcriptional.
As to U72A G74U, the self-cleavage turned out to be 0.397. For A16G A70C, the self-cleavage turned out to be 1.04.

On to G55A G82C, for which the self-cleavage turned out to be 0.356. Consider G5A A56G, for which the self-cleavage was 0.225. The figure for G11C A71G is 0.277.

As for A43G C62G, the self-cleavage came to 0.415. The same measure for C26A U47A: 0.731; for U47G C64G: 0.485. As for G11A U23C, the self-cleavage was found to be 0.353.

Regarding C18G G38C, the self-cleavage is 0. The figure for U79A A83C is 0.151; for G39C C86U it is 0.208; for G55C U72A it is 0.743. The figure for C22A C85U is 0.345; for G17C G81C it is 0.0898. The same measure for G5A U60G: 0. G68A A83C: the self-cleavage is 0.519. The figure for C32G U72C is 0.104. The figure for C22U A56G is 0.895.

Turning to G55U U60C, the self-cleavage was found to be 1.11. As for G6A U46A, the self-cleavage is 0.208. The figure for U27A C85G is 0.793; for G5U U72A it is 0.128. Consider U72A C75U, for which the self-cleavage is 0.199. The figure for C22G C24A is 0.0396; for U9G G29A it is 0.123; for G68C A70U it is 0.778. The same measure for U20A C30G: 0.095; for G28U U47C: 0.297; for G28A G34C: 0.0536. The same measure for C63G G73U: 0.397. In the case of G35A U72G, the self-cleavage amounted to 0.251.

With C36G C61U, the self-cleavage was determined as 0.121. The figure for G29A U72C is 0.0852. The figure for U46G G53U is 0.262; for C19G C86G it is 0.104. The same measure for C21A C66U: 0.0683. In the case of C41U C85G, the self-cleavage amounted to 0.911.

As for G52A C57G, the self-cleavage is 1.01. The same measure for G5U U47C: 0.185.

U9C A42U: the self-cleavage is 0.767. The figure for C24U A43U is 0.182; for G29A A51C it is 0.121; for G5U A43C it is 0.

On to C21A G81A, for which the self-cleavage was found to be 0.0647.

Turning to G31C U37G, the self-cleavage stood at 0.214.

Regarding G40C G76C, the self-cleavage amounted to 0.197. Consider C4A C18U, for which the self-cleavage amounted to 0.119.

With C18A C19A, the self-cleavage is 0.128. In the case of C14G C63A, the self-cleavage turned out to be 0.755. The same measure for U47G C58G: 0.831; for C33U U72A: 0.346; for A16U G53C: 1.01.

On to A42G C44A, for which the self-cleavage amounted to 0.536.

As for U60G C61U, the self-cleavage was 1.06. The same measure for G68U G73U: 0.0923. The same measure for C32G C63G: 0.0831. The same measure for C49G G68C: 0.458; for G6C C75U: 0.095; for U20G C44G: 0. On to G67U G82C, for which the self-cleavage turned out to be 0.182.

With G10C C85A, the self-cleavage is 0.598.

With G53C A71U, the self-cleavage turned out to be 1.1.

For the variant U23C U72C, the self-cleavage amounted to 0.665. The figure for C36G A71G is 0.138. The same measure for C13G A45U: 0.0346; for C7U A56C: 0.806; for A51G U60G: 0.867.

Take G6A C85A: the self-cleavage amounted to 0.895. Regarding U47A G76A, the self-cleavage was 0.901.

On to C18G U60A, for which the self-cleavage was determined as 0.

Turning to G28U U65A, the self-cleavage was determined as 0.0339. Consider G54A A70G, for which the self-cleavage worked out at 0.79. The same measure for U9G G38A: 0.156; for A70U C84G: 0.541; for U12A G39A: 0.225. Consider C44A G55C, for which the self-cleavage was determined as 0.831. The same measure for A8G G38A: 0.0959; for G11C C84G: 0.831; for C14U G31A: 0.475. As to G31A G74C, the self-cleavage amounted to 0.182. The same measure for A8C A43U: 0.289. On to C21U G34U, for which the self-cleavage amounted to 0.0354. The figure for C64G G76C is 0.702; for C64U C66A it is 0.95; for U37G U60C it is 0.256. The same measure for C62G A71G: 0.346; for C22U G25U: 0.0287; for C66A A87C: 1. The same measure for A8U A71C: 0.703. Regarding C4G C30U, the self-cleavage is 0.0615. For the variant C30G C63U, the self-cleavage is 0.0231. The same measure for C26U C66G: 0.861; for C15G U46A: 0.399; for G28A U69A: 0.166. The figure for A43C G68A is 0.268; for C24G C33U it is 0.104; for C14G C49G it is 0.383. The figure for G2A C63A is 0.198; for C15G G74U it is 0.0875.

As for C3A G54U, the self-cleavage was 0.453. The figure for C7G G52U is 0.196; for U23A C30G it is 0. The same measure for U12C C33A: 0.0386; for U72A A77G: 0.57; for C26G C33A: 0.298.

As to C13U C61A, the self-cleavage was 0.47.

Regarding G82U A83G, the self-cleavage was 0.137.

As for C36U G50C, the self-cleavage came to 0.612. The same measure for G10A U20C: 0.0234; for C7U C48G: 0.831; for A71U C75G: 0.0852. The figure for C4G C84A is 0.225.

Regarding A56C C57G, the self-cleavage is 0.978.

Regarding G29U C30U, the self-cleavage was 0.0779.

As for G29U A51C, the self-cleavage is 0.0898. Regarding G74A C86A, the self-cleavage was 0.537. The same measure for A71U A77G: 0.508; for U60A C75U: 0.253. The figure for C24G C84G is 0.0811; for C33U U69A it is 0.898; for C36A A42G it is 0.113.

C21G C44A: the self-cleavage is 0.

Turning to C7A U9G, the self-cleavage came out at 0.396. The figure for C22U C62U is 0.842. The figure for U12G G17U is 0.475. In the case of G1C G31A, the self-cleavage came to 0.0302. The same measure for G28A U79C: 0.0542; for U37G A78G: 0; for C7U U65C: 0.914.

As for C21U G54C, the self-cleavage worked out at 0.292. The same measure for G2U U69G: 0.0475. G35U G67C: the self-cleavage stood at 0.41. With G31C U47A, the self-cleavage came out at 0.467. The figure for C22U C86G is 0.692.

Regarding C3U G73U, the self-cleavage is 0.257. The figure for C15A G82A is 0.369. The figure for C41U C63U is 1.12; for U12A A16C it is 0.499; for U9C G81C it is 0.598. The same measure for C32G A83U: 0.166; for C4U A78C: 0.0378; for C14U C36G: 0.322. Take U47A G67C: the self-cleavage stood at 1.12. The same measure for G6U U65A: 0.431. Regarding G11A C49U, the self-cleavage was found to be 0.386. The same measure for C24U A51C: 0.767; for G5C G29U: 0; for G6U C24G: 0.0462. The figure for C22U U27A is 0.227. The figure for G73C A77G is 0.44; for C7A U12G it is 0.237. In the case of C22A C33A, the self-cleavage is 0.0314.

For the variant C22A C33U, the self-cleavage is 0.191. The figure for C19A G34C is 0.0739; for U20C C21A it is 0.0475; for G50C it is 0.963.

Regarding C14U C33U, the self-cleavage came to 0.975. The figure for G25U U60G is 0.229; for C61G G67A it is 0.743; for C49U A78U it is 0.437. The same measure for C49A C61U: 0.789; for C41A G81A: 0.242. The same measure for G53A G67A: 1.02; for U9G G55A: 0.962. Regarding C14A G25U, the self-cleavage stood at 0.0652. For the variant U47C C57G, the self-cleavage worked out at 0.677.

The values are drawn from the RNAGym collection of RNA variant scans (doi:10.7554/elife.80360).
